Source: the supplement of paper PMC9170038

Test system: MS2 coat protein
Test: apparent KD of MS2 coat protein; designed switch direction (-1 OFF switch, 1 ON switch): -1; higher = weaker reporter binding
Summary of the method: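 Apparent KD, taken as the median over clusters for each design, was obtained by curve-fitting normalised cluster fluorescence. Designed RNA switches had been transcribed on Illumina chips by stalled E. coli RNA polymerase and titrated with SNAP-549-labelled MS2 coat protein, doubling from 0.7 or 1.5 nM to 3 µM.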

[1] = Eterna round: R95, input ligand: FMN 200 uM
[2] = Eterna round: R95, input ligand: microRNA oligo, concentration not stated
[3] = Eterna round: R95, input ligand: none
[4] = input ligand: microRNA oligo, concentration not stated

| Sequence | apparent KD of MS2 coat protein [1] [nM] | apparent KD of MS2 coat protein [2] [nM] | apparent KD of MS2 coat protein [3] [nM] | apparent KD of MS2 coat protein (input ligand: FMN 200 uM) [nM] | apparent KD of MS2 coat protein [4] [nM] | apparent KD of MS2 coat protein (input ligand: none) [nM] |
| --- | --- | --- | --- | --- | --- | --- |
| UUUAAUUUUUUUUUUUUACAAGCUUUUUGCUCGUCUUAUACAUGAGGAUCACCCAUGUGAAUGGAGGGUAAAUUAUC [JMF 84] (puzzle: Sensor v3, turn-off variant 2) | 19.4 | 42.5 | 16.8 | – | – | – |
| UGAUCAGACCGAGGAUAUACAUGGAGGACCCACGUGAGUGGGUCCACUACAUGAGGAUCACCCAUGUAGAAGGCGGUCUGAUCU [JL ENG2 1.91] (Eterna round: R96, puzzle: Exclusion NG 2) | – | – | – | 1880 | 91.3 | 128 |
| UUUUUGAUAGGAUAUACAUGAGGAUCACCCAUGUGUGACAGGACUGACGCUCUUCAUCGUAGAAGGAUCCGAGC [Eternabot (L1) Solution 97] (Eterna round: R97, puzzle: Exclusion 3) | – | – | – | 27.4 | – | 30.9 |
| GGUUGACAUGAGGAUCACCCAUGUGAGGAUAUGCGAGAGAAAAAAGUGAGGAAGAAGAGCAGAAGGCGCUGUCG [salish99-ex1_r3_012] (puzzle: Exclusion 1) | 99.4 | 134 | 117 | – | – | – |
| GAAUGAGAGCAGGAUAUCUUAAAAAUGUAUAAAAGAGAAGGGCUCACAUGAGGAUCACCCAUGUGGUCCUAGAU [jl-ex6-4.69 jandersonlee mod] (Eterna round: R97, puzzle: Exclusion 6) | – | – | – | 572 | – | 40.5 |
| AUAAUGUCAGGAUAUCAGUCGACUAGCGAUAGCUAGUCGACUGAGAAGGGACAUGAGGAUCACCCAUGUGUUUC [E4/14-A4] (Eterna round: R97, puzzle: Exclusion 4) | – | – | – | 2.73 | – | 170 |
| AAUAACAGGCCGAUCCUAAACAUGAGGAUCACCCAUGUGCGCGUCUUGUAAAGUACUAUCACGAAAGUGAUAGUACA [Sensor v3, turn-off variant 1 (MOD of Eli's v1-59 v.3)] (puzzle: Sensor v3, turn-off variant 1) | 41.8 | 37.1 | 43.7 | – | – | – |
| GGCACACAUGAGGAUCACCCAUGUGAGGAUAUGGUGCGAUCGUCGAAAGACGAUAGCACUAGAAGGCACAUGCC [Eli x1 4.06] (Eterna round: R97, puzzle: Exclusion 1) | – | – | – | 28.2 | – | 16.1 |
| UCCUCACAUGAGGAUCACCCAUGUUAGGAUAUCUCGGUGCCCUGCAGGCAGUGGCACCAGAGAAGGAACGUGCA [Querra] (puzzle: Exclusion 1) | – | 18.8 | – | – | – | – |
| CAAUAUUAUCGAGGAUAUCCUAUUGUAUUUCAGGGAGAAGGCGGACUCAACAUGAGGAUCACCCAUGUAAGACGGGUACUAGAU [Ex NG1 #19] (Eterna round: R96, puzzle: Exclusion NG 1) | – | – | – | 92.2 | 69.8 | 89.7 |
| CAGUACUGAGGAUAUACAUGAGGAUCACCCAUGUGUUCCAGCGAGGAAACUAGCAAAAGUAGAAGGCAGUACUG [salish99_ex3_r3_077] (Eterna round: R96, puzzle: Exclusion 3) | – | – | – | 242 | 15.6 | 18.5 |
| CUUGUUUAUGUGAGGAUAUACUGUUAGUAUAGUUUGUAGAAGGUACAUGAGGAUCACCCAUGUUUAUUACUCUU [JR_BME4_Sub046] (puzzle: Brourd's mod of Exclusion 4) | – | 11.9 | – | – | – | – |
| UUGCAGUCGUCAGGAUAUAGUAUUACGGCCUUUCAUUUCUUCAUACAUGAGGAUCACCCAUGUCGCUAGAAGGGAUUAUCGCUU [salish99_ExNG2_r04_107] (Eterna round: R96, puzzle: Exclusion NG 2) | – | – | – | 16.4 | 14.6 | 20.6 |
| GAUGUGGGUUUUCAGAGUAACAUGAGGAUCACCCAUGUAGAAGUUGGAGGGAUCAAGCUUUUUGGUCGUCAUAUGUG [JR_SV3TOV1_Sub051] (Eterna round: R96, puzzle: Sensor v3, turn-off variant 1) | – | – | – | 603 | 358 | 588 |
| AACCUGAGGCUUUGCUUUAGGUUUACAUGAGGAUCACCCAUGUAGGAUAUGGUAGGCUUUGCUUACCAGAAGGACAUGAAAAUU [Mat - Exclusion NG 3 - Mod of JL - D28] (Eterna round: R96, puzzle: Exclusion NG 3) | – | – | – | 225 | 40.4 | 44.2 |
| ACAAGCGAAAGGCUCGUCUUAUUUUUGUAGAGGUUCUAAACAUGAGGAUCACCCAUGUAGUGGCGAUGGUGGAGGUA [JR_SV3TOV2_Sub069] (puzzle: Sensor v3, turn-off variant 2) | 41.8 | 44.2 | 42.4 | – | – | – |
| CAAUACAAGCGAAGAUCCUACAUGAGGAUCACCCAUGUGCUCGUCUUAAAAGGUACUGUGACGAAAGUCACGGUACC [Eli 87 + Mat D67 4] (Eterna round: R97, puzzle: Sensor, turn-off variant 1) | – | – | – | 282 | – | 296 |

| Sequence | apparent KD of MS2 coat protein [1] [nM] | apparent KD of MS2 coat protein [2] [nM] | apparent KD of MS2 coat protein [3] [nM] | apparent KD of MS2 coat protein (input ligand: FMN 200 uM) [nM] | apparent KD of MS2 coat protein [4] [nM] | apparent KD of MS2 coat protein (input ligand: none) [nM] |
| --- | --- | --- | --- | --- | --- | --- |
| GCUUGAGCUGUGAGGAUAUUUCGAGUGAAAGCUUGAGAGAAGGCACAUGAGGAUCACCCAUGUAAGGUUCGAGU [-26, -23.9 kcal, A 28%, 1bis-1bis] (Eterna round: R97, puzzle: Brourd's mod of Exclusion 4) | – | – | – | 13.6 | – | 13.2 |
| UAUCGGCGGACCGAGGCUUUUUGCUCGUCUUAUGCUAUGACAUGAGGAUCACCCAUGUGGUGGUGGUCCGUUGUAGU [JL ViennaUCT Bitein mod 10] (puzzle: Sensor v3, turn-off variant 2) | 64.5 | 12.6 | 48.1 | – | – | – |
| UAGUAAAAGGUGAGGAUAUCCGCAAUAAAACGUGAGGAGAAGGCACAUGAGGAUCACCCAUGUAGGGUAUCAAA [BmEX4 A.17] (Eterna round: R97, puzzle: Brourd's mod of Exclusion 4) | – | – | – | 421 | – | 450 |
| GCUCCAGGAGGAUAUGCAUUCGAAAACAUGAGGAUCACCCAUGUAGGUGUCCACGUGCGAGCAGAAGGCCUAAAAC [Riqu] (Eterna round: R97, puzzle: Exclusion 5) | – | – | – | 286 | – | 646 |
| GUAUAACAUGUAGGAUAUGCGUGGCGAAGCUAUGCAGAAGGACAUGAGGAUCACCCAUGUAAUAGCGUCUGCGUACAGAUGCAA [Mat - Exclusion NG 1 - Mod of JL - D90] (Eterna round: R96, puzzle: Exclusion NG 1) | – | – | – | 134 | 27.9 | 40.8 |
| GACUAUUCGUAGGAUAUACUACUUAGCUAUGGAGUAGAAGGACGAACAUGAGGAUCACCCAUGUGGGACCCGGG [Eternabot (L2) Solution 31] (Eterna round: R97, puzzle: Exclusion 6) | – | – | – | 125 | – | 81.2 |
| CCUAUGUGAGGAUAUCACUGGUCUUCUCACUGGAUGAUUAGUGAGAAGGCACAUGAGGAUCACCCAUGUCGGUG [Ex4 - 3 - 51] (Eterna round: R96, puzzle: Exclusion 4) | – | – | – | 633 | 482 | – |
| UACCUGAGGCUUUGCUUUAGGCUUACAUGAGGAUCACCCAUGUAGGAUAUGGUAGGCUUUGCUUACCAGAAGGACAUGGAAAUU [Mat - Exclusion NG 3 - Mod of JL - D20] (Eterna round: R96, puzzle: Exclusion NG 3) | – | – | – | 349 | 63 | 70.7 |
| ACAACAAGCUUUUUGAACGUAGAACAUGCAGCUCUAGAAACAUGAGGAUCACCCAUGUAAGCCAGUUAGAUAGGUGA [JR_SV3TOV2_Sub067] (puzzle: Sensor v3, turn-off variant 2) | 76.1 | 69.1 | 89.5 | – | – | – |
| UGGUCACAUGAGGAUCACCCAUGUCAGGAUAUCGUCACUGGAGCUUCGGCUCCAGUGACGAGAAGGGAUAUAAU [E1/9-A1] (Eterna round: R97, puzzle: Exclusion 1) | – | – | – | 191 | – | 57.8 |
| GGGAUGUCAGGAUAUCCGAAAGUCUACCAAUACGGCAGACAGGAGAAGGGACAUGAGGAUCACCCAUGUAAAGA [Quatma] (puzzle: Exclusion 4) | 114 | 36.7 | 52.4 | – | – | – |
| ACGCUAUGAGGAUAUACAUGAGGAUCACCCAUGUCCCGAUGGUGUUUCCAUUGGAGACGUAGAAGGUAUGGUUA [Eternabot (L2) Solution 13] (Eterna round: R97, puzzle: Exclusion 3) | – | – | – | 169 | – | 172 |
| AAGAAGAUCAAAGGAUAUGGAGCUGAAACGGCGCUAGAAGGUUGUCUAGUGUAACAUGAGGAUCACCCAUGUAGGGACCUCUAA [AK ExNG1-V2-2] (Eterna round: R96, puzzle: Exclusion NG 1) | – | – | – | 562 | 385 | 644 |
| CGUGCGUAUGUGAGGAUAUGCUGGUCCUUGGAUCGGCAGAAGGCACAUGAGGAUCACCCAUGUGGUGUCGUUCG [salish99_Bmod_ex4_093] (puzzle: Brourd's mod of Exclusion 4) | – | 126 | – | – | – | – |
| UCAACGCAAGGAUAUACUUGCGGUGAUGUUCGAAUUCUUCUACUUGAGGAUCACCCAAGUAGAAGGUGCGAUGA [jl-ex2.4.62 ViennaUCT mod] (Eterna round: R97, puzzle: Exclusion 2) | – | – | – | 12.5 | – | 13.4 |
| AGGUGCUUCUGGAGACAUGAGGAUCACCCAUGUUGAGUUAGCGAGGAUAUCGGUAAGGCAUGUGAUGAGAAGGCGCAAACCGAU [Ex NG3 #49] (Eterna round: R96, puzzle: Exclusion NG 3) | – | – | – | 50.6 | 35.5 | 49.5 |
